Molecular target: profilin (Acanthamoeba)
Assay: affinity chromatography

Sequence of Arp2/3 complex (P53487 whole entry, looked up, one chain of several): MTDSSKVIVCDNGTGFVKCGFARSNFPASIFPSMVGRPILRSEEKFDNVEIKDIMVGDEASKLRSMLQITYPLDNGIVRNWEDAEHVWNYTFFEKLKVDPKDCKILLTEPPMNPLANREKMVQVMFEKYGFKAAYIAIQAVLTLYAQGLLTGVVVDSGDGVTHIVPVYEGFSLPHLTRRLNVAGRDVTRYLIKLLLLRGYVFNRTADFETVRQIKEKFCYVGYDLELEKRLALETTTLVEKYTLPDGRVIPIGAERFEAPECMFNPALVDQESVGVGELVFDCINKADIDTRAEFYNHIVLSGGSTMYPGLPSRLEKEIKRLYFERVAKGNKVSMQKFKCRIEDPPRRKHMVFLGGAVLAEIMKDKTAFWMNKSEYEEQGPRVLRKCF

Substance: Arp2/3 complex (from UniProt P53487 1-388)
- percent of the complex bound to the column that holds profilin: 10%

From publication PMC2134809
